This experiment deals with T1, Soluble domain (residues 1-209) of human Bcl-Xl (human, UniProt Q07817-1 1-209).
T1 construct: residues left at the N-terminus after thrombin cleavage of the 6XHis tag; Bcl-Xl, human, soluble domain, residues 1-209; 15N-labelled for the titration with peptides; BMRB 19521 (Follis et al., 2014) was used only for the chemical shift assignment; also called 15N-Bcl-Xl; source: BL21 E. coli (pET15b), purified (nickel-sepharose, thrombin digestion, reverse IMAC, size exclusion chromatography); …
T1 sequence (Q07817 other isoform, or with tags, fused parts or gaps): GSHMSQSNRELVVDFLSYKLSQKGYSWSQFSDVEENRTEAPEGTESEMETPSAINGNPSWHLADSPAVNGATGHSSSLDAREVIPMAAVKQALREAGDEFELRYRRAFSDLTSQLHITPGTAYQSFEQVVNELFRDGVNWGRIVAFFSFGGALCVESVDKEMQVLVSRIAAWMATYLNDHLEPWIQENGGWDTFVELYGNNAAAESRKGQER
The experiment is described as follows: NMR titration; 15N-Bcl-Xl with synthetic α-Syn (1-26) peptides; 1H-15N HSQC at 298 K; Hepes 25 mM pH 7.0, NaCl 50 mM, 10% D2O, 1 mM DTT; ΔδN against ligand concentration fitted by a single binding model; Kd averaged over residues 94, 120, 134 and 196 of Bcl-Xl. The conditions noted are these: both partners purified.

B1: N-terminal acetylated alpha-synuclein peptide 1-26 (peptide)
peptide: not shown
modifications: acetyl group at the N-terminus
notes: α-Synuclein, human, residues 1-26; also called α-Syn (1-26) peptide with an acetyl group at the N-terminus; source: synthetic peptide (Fmoc solid-phase synthesis, reversed-phase HPLC)
A word on the Kd: it is a measure of binding affinity in units of concentration. Higher therefore signals weaker binding. For the molecule B1, the affinity, expressed as Kd, was 1.95 ± 0.56 mM.

These data come from article PMC5845890, “Pathophysiological Consequences of Neuronal α-Synuclein Overexpression: Impacts on Ion Homeostasis, Stress Signaling, Mitochondrial Integrity, and Electrical Activity” (Frontiers in Molecular Neuroscience, 2018).
